Experimental findings from article doi:10.1101/2024.04.24.590897 (bioRxiv, 2024) are described below.

In the test the target is Flag-LEDGF/p75 (UniProt O75475 1-530). Description: AlphaScreen or HTRF. Background: Bead proximity is the source of the signal in Alpha formats.

B1: GST-LEDGF/p52 (natural protein)
chain: not shown
For the molecule B1, the binding result is given as “binds”.
